Two substances from PMC6669743 can be followed below.

This test concerns the target HAdV-5T* virion (mutant HAdV-5 unable to bind to human or murine FX) (human adenovirus 5) (UniProt P04133). Kind of test: co-sedimentation; 2 x 10^11 vp of virus incubated with 250 uL C57BL/6 mouse serum for 30 min at 37 C; virions and bound proteins purified by CsCl gradient ultracentrifugation without cross-linking; LC-MS/MS with label-free quantification normalised to hexon.

As to “complement component C3 (mouse) (from UniProt P01027) (natural protein)”, the fold change of bound amount against HAdV-5 stood at 40.2 fold.

Turning to “complement component C4b (mouse) (from UniProt P01029) (natural protein)”, the fold change of bound amount against HAdV-5 was found to be 87.8 fold.
